Assay results from paper PMC6212790, “How bacterial xenogeneic silencer rok distinguishes foreign from self DNA in its resident genome” (Nucleic Acids Research, 2018).

Assays:
Rok-C97-191 = target: T1, Rok-C97-191 (Bacillus subtilis subsp. subtilis str. …, UniProt O34857 97-191); assay: NMR titration; ITC: sodium phosphate buffer, 200 mM NaCl, pH 6, 277 K, 50 uM protein in cell, 750 uM Seq1 DNA; NMR samples: 50 mM sodium phosphate, 50 mM NaCl, pH 6.0; settings: protein: recombinant; tags: C-terminal His6; blunt, self-complementary 12 bp
T1 sequence: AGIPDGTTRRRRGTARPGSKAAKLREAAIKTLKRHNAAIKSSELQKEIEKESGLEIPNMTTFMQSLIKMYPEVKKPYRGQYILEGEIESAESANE

Rok-C102-185 [1] = target: T2, Rok-C102-185 (Bacillus subtilis subsp. subtilis str. …, UniProt O34857 102-185); assay: NMR HSQC; ITC: sodium phosphate buffer, 200 mM NaCl, pH 6, 277 K, 50 uM protein in cell, 750 uM Seq1 DNA; NMR samples: 50 mM sodium phosphate, 50 mM NaCl, pH 6.0; settings: protein: recombinant, tags: C-terminal His6, blunt
T2 sequence: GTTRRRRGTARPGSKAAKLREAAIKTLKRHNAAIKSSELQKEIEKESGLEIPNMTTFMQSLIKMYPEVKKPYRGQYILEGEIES

[2] = target: the molecule itself; assay: SEC; gel filtration on a GE HiLoad 16/600 Superdex 75 preparation grade column; elution volumes compared with cytochrome C (12.4 kD) and the void volume
Rok-C114-185 R174A [3] = target: T3, Rok-C114-185 R174A (Bacillus subtilis subsp. subtilis str. …, UniProt O34857 114-185, R174A); assay: ITC; ITC: sodium phosphate buffer, 200 mM NaCl, pH 6, 277 K, 50 uM protein in cell, 750 uM Seq1 DNA; NMR samples: 50 mM sodium phosphate, 50 mM NaCl, pH 6.0; settings: protein: recombinant; tags: C-terminal His6; blunt, self-complementary 18 bp
T3 sequence: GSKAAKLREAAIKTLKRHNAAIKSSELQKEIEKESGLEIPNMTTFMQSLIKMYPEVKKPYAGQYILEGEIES

Rok-C114-185 T156A [4] = target: T4, Rok-C114-185 T156A (Bacillus subtilis subsp. subtilis str. …, UniProt O34857 114-185, T156A); assay: as above; settings: protein: recombinant; tags: C-terminal His6; blunt, self-complementary 18 bp
T4 sequence: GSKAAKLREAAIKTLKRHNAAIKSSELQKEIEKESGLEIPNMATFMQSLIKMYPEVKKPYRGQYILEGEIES

Rok-C114-185 K171A = target: T5, Rok-C114-185 K171A (Bacillus subtilis subsp. subtilis str. …, UniProt O34857 114-185, K171A); assay: ITC; ITC: sodium phosphate buffer, 200 mM NaCl, pH 6, 277 K, 50 uM protein in cell titrated with 750 uM Seq1 DNA; PBM: buffer not stated; settings: protein: recombinant; tags: C-terminal His6; blunt, self-complementary 18 bp
T5 sequence: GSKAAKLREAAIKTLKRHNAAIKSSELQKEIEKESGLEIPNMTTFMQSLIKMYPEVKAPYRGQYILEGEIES

Rok-C114-185 = target: T6, Rok-C114-185 (Bacillus subtilis subsp. subtilis str. …, UniProt O34857 114-185); assay: as above; settings: protein: recombinant; tags: C-terminal His6; blunt, self-complementary 18 bp
T6 sequence: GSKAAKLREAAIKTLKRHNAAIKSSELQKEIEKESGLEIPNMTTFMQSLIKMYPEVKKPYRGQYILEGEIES

Rok-C114-185 K136A = target: T7, Rok-C114-185 K136A (Bacillus subtilis subsp. subtilis str. …, UniProt O34857 114-185, K136A); assay: as above; settings: protein: recombinant; tags: C-terminal His6; blunt, self-complementary 18 bp
T7 sequence: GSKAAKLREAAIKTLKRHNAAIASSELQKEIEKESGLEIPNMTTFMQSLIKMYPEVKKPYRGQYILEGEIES

Rok-C114-185 K116A = target: T8, Rok-C114-185 K116A (Bacillus subtilis subsp. subtilis str. …, UniProt O34857 114-185, K116A); assay: as above; settings: protein: recombinant; tags: C-terminal His6; blunt, self-complementary 18 bp
T8 sequence: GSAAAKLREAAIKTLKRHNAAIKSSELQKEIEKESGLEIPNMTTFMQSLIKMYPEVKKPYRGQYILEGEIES

Rok-C114-185 T157A = target: T9, Rok-C114-185 T157A (Bacillus subtilis subsp. subtilis str. …, UniProt O34857 114-185, T157A); assay: as above; settings: protein: recombinant; tags: C-terminal His6; blunt, self-complementary 18 bp
T9 sequence: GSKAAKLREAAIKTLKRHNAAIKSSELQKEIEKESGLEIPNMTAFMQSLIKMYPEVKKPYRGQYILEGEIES

Rok-C102-185 [5] = target: T2, Rok-C102-185; assay: as above; settings: protein: recombinant; tags: C-terminal His6; blunt, self-complementary 18 bp
Rok-C114-185 K164A = target: T10, Rok-C114-185 K164A (Bacillus subtilis subsp. subtilis str. …, UniProt O34857 114-185, K164A); assay: as above; settings: protein: recombinant; tags: C-terminal His6; blunt, self-complementary 18 bp
T10 sequence: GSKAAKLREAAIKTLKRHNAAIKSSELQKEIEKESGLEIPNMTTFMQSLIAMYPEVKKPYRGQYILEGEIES

Rok-C114-185 R174A [6] = target: T3, Rok-C114-185 R174A; assay: as above; settings: protein: recombinant; tags: C-terminal His6; blunt, self-complementary 18 bp
Rok-C114-185 T156A [7] = target: T4, Rok-C114-185 T156A; assay: as above; settings: protein: recombinant; tags: C-terminal His6; blunt, self-complementary 18 bp

B1: 3AT (dsDNA)
DNA 1: CGCATATATGCG
DNA 2: CGCATATATGCG
Rok-C97-191
  binding result: binds
Rok-C102-185 [1]; self-complementary 12 bp
  binding result: binds

B2: Rok (full-length Rok protein, Bacillus subtilis subsp. subtilis str. 168) (natural protein, B. subtilis subsp. subtilis str. 168, UniProt O34857 1-191, looked up)
chain: MFNEREALRLRLEQLNEAEVKVIREYQIERDKIYAKLRELDRNGSPSEIKKDFRSEKKPDSLPVLAELAAQEIRSYQPQSQQQSVQPQLQSISSLPAGIPDGTTRRRRGTARPGSKAAKLREAAIKTLKRHNAAIKSSELQKEIEKESGLEIPNMTTFMQSLIKMYPEVKKPYRGQYILEGEIESAESANE
notes: Rok, xenogeneic silencer of Bacillus subtilis subsp. subtilis str; cloned into pET-21a(+) NdeI/XhoI; size of the higher order oligomer not determined; source: E. coli Rosetta (DE3), purified (Ni-NTA, size exclusion chromatography)
[2]
  binding result: binds

B3: 8AT (dsDNA)
DNA 1: CATATATATATATATATG
DNA 2: CATATATATATATATATG
Rok-C102-185 [1]; self-complementary 18 bp
  binding result: binds

B4: Rok-N^1-95 (N-terminal domain of Rok, residues 1-95) (domain or fragment, B. subtilis subsp. subtilis str. 168, UniProt O34857 1-95, looked up)
chain: MFNEREALRLRLEQLNEAEVKVIREYQIERDKIYAKLRELDRNGSPSEIKKDFRSEKKPDSLPVLAELAAQEIRSYQPQSQQQSVQPQLQSISSL
notes: Rok of Bacillus subtilis subsp. subtilis str; cloned into pET-21a(+) NdeI/XhoI; source: E. coli Rosetta (DE3), purified (Ni-NTA, size exclusion chromatography)
[2]
  binding result: binds

B5: Seq1 (dsDNA)
DNA 1: CTAATAACTAGTTATTAG
DNA 2: CTAATAACTAGTTATTAG
Rok-C114-185 R174A [3]
  Kd: 89 ± 42 µM
Rok-C114-185 T156A [4]
  Kd: 42.9 ± 7.1 µM
Rok-C114-185 K171A
  Kd: 110 ± 35 µM
Rok-C114-185
  Kd: 19.7 ± 2.7 µM
Rok-C114-185 K136A
  Kd: 39.4 ± 6.4 µM
Rok-C114-185 K116A
  Kd: 42.9 ± 8.1 µM
Rok-C114-185 T157A
  Kd: 15 ± 1.9 µM
Rok-C102-185 [5]
  Kd: 7.9 ± 1.3 µM
Rok-C114-185 K164A
  Kd: 30.9 ± 2.9 µM
Rok-C114-185 R174A [6]
  Kd: 89 ± 42 µM
Rok-C114-185 T156A [7]
  Kd: 42.9 ± 7.1 µM
